From patent US8809287B2, “Compositions and methods for altering Wnt autocrine signaling” (Icahn School of Medicine at Mount Sinai, priority 2004, dated 2014) come the findings set out here.

Test [1] relates to uncomplexed β-catenin. Briefly: Uncomplexed β-catenin in PAI ovarian tumor cells. It counts as cell-based, human. The settings on record: DKK1-HA retrovirus. As to the method:
(§1) β-catenin levels were assessed using the GST-E-cadherin binding assay, which has been previously described (Bafico et al., (1998) Oncogene 16:2819-2825). Briefly, bacterially expressed GST-E-cadherin was purified with glutathione-Sepharose beads and incubated with 1 mg of each cell lysate. The GST-E-cadherin/[…]-catenin complex bound to the beads was recovered by centrifugation and analyzed by SDS-PAGE followed by immunoblotting. The uncomplexed β-catenin was detected using a monoclonal antibody to β-catenin (Transduction Laboratories). Unphosphorylated β-catenin was detected with a monoclonal antibody specific for β-catenin dephosphorylated at residues 27-37 (Alexis, Läufelfingen, Switzerland). FRP1-HA and DKK1-HA were detected with an anti-HA monoclonal antibody (Hybridoma Center, Mount Sinai School of Medicine, New York).
(§2) Breast (MDAMB231, ATCC No. HTB-26) and ovarian A1847 tumor cell lines were infected with vector alone or FRP 1-HA (described in Example 1) retroviruses and marker selected. […] Breast (MDAMB231) and ovarian A1847 tumor cell lines were analyzed for uncomplexed β-catenin and FRP 1-HA by immunoblot analysis with either an anti-β-catenin antibody (Transduction Laboratories) or an anti-HA antibody (Hybridoma Center, Mount Sinai School of Medicine, New York). […]

The subject of test [2] is TCF dependent transcription. Briefly: TOP-Glow/FOP-Glow TCF reporter assay in PAI tumor cells. The format is cell-based, human. The settings on record: PAI ovarian tumor cells, 48 hours. As to the method: Wnt signaling activates TCF dependent transcription, which can be monitored by reporters containing TCF responsive elements (Morin et al., (1997) Science 275:1787-1790). TCF responsive elements operably linked to a reporter (TOP-Glow, wild type, or FOP-Glow, mutant) were analyzed for transcriptional activity in PAI tumor cells in the presence or absence of DKK1. Ovarian tumor PAI cells plated at 3×10^5 per well in 6-well plates were co-transfected with 1 μg of either the TOP-glow or FOP-glow plasmids (Upstate Biotechnology, Waltham, Mass.) and 0.001 μg of the Renilla control plasmid (pRL-CMV) utilizing Fugene (Roche) according to the manufacturer's instructions. After 48 hours cells were lysed and analyzed utilizing the Dual Luciferase Reporter Assay system (Promega, Madison, Wis.). […] These findings further established that TCF dependent transcription was constitutively activated in these tumor cells by an autocrine Wnt mechanism.

Test [3] concerns uncomplexed β-catenin. Briefly: GST-E-cadherin binding assay / immunoblot of uncomplexed β-catenin, Wnt-3a expressing NIH3T3 cells. The format is cell-based, mouse. As to conditions: NIH3T3 cells stably expressing Wnt-3a; purified DKK1 (10 nM). As to the method:
as §1, with “York). […]” for “York).”

The test system of test [4] is uncomplexed β-catenin. Briefly: Uncomplexed β-catenin in A1847 ovarian tumor cells. As to conditions: FRP1-HA retrovirus. It counts as cell-based, human. As to the method: as §1, §2
Test [5] has as its system HCT116 cell lines. Briefly: Tumorigenicity of HCT116 cell lines injected subcutaneously in nude mice. The format is in vivo. As to the method:
To assess the effects of Wnt autocrine inhibition in vivo, tumorigenicity experiments were performed utilizing parental or β-catenin wild type allele containing HCT116 cell lines, in which stable marker selected mass cultures expressing FRP1 were obtained. Parental and wild type β-catenin allele containing HCT116 cells were transfected with either vector control or FRP1. Marker selected mass cultures of each were subcutaneously injected in 6 week old nude mice at 2.5×10^6 cells per site. Tumor growth was monitored at weekly intervals as previously described (Pierce et al. (1991) Oncogene 6:1189-1194). Values in FIG. 7F represent the mean (± standard deviation) of 4 inoculation cites per cell line. […] All of these findings establish that autocrine Wnt signaling can be present in human colon carcinoma cells that harbor downstream lesions within the canonical pathway.

The subject of test [6] is uncomplexed β-catenin. The test can be described thus: Uncomplexed β-catenin in MDAMB231 breast tumor cells. The format is cell-based, human. The settings on record: FRP1-HA retrovirus. As to the method:
as §1, §2

B1: DKK1: Dickkopf-1, secreted Wnt antagonist protein that binds Wnt co-receptor LRP6; used purified, in conditioned media or retrovirally expressed with HA tag (protein, UniProt O94907 32-266, looked up)
Dickkopf-related protein 1: TLNSVLNSNAIKNLPPPLGGAAGHPGSAVSAAPGILYPGGNKYQTIDNYQPYPCAEDEECGTDEYCASPTRGGDAGVQICLACRKRRKRCMRHAMCCPGNYCKNGICVSSDQNHFRGEIEETITESFGNDHSTLDGYSRRTTLSSKMYHTKGQEGSVCLRSSDCASGLCCARHFWSKICKPVLKEGQVCTKHRRKGSHGLEIFQRCYCGEGLSCRIQKDHHQASNSSRLHTCQRH
modifications: HA tag in some uses
With B1, in test [1], the “constitutively up-regulated β-catenin” value was “inhibition of constitutively up-regulated β-catenin”. Further, in test [2], the “level of endogenous TCF dependent signaling” value is listed as “striking reduction”. Also, the “up-regulated β-catenin levels” value in test [3] is recorded as “striking inhibition of up-regulated β-catenin levels”.

B2: FRP1: human secreted Frizzled Related Protein 1, Wnt antagonist; expressed from pBabe-derived retrovirus with carboxy-terminal HA tag (protein, UniProt Q8N474 32-314, looked up)
Secreted frizzled-related …: SEYDYVSFQSDIGPYQSGRFYTKPPQCVDIPADLRLCHNVGYKKMVLPNLLEHETMAEVKQQASSWVPLLNKNCHAGTQVFLCSLFAPVCLDRPIYPCRWLCEAVRDSCEPVMQFFGFYWPEMLKCDKFPEGDVCIAMTPPNATEASKPQGTTVCPPCDNELKSEAIIEHLCASEFALRMKIKEVKKENGDKKIVPKKKKPLKLGPIKKKDLKKLVLYLKNGADCPCHQLDNLSHHFLIMGRKVKSQYLLTAIHKWDKKNKEFKNFMKKMKNHECPTFQSVFK
modifications: C-terminal HA tag
notes: human secreted Frizzled Related Protein 1, Wnt antagonist; expressed from pBabe-derived retrovirus with carboxy-terminal HA tag
On to B2, for which the “constitutively up-regulated β-catenin” value in test [4] and in test [6] was “inhibition of constitutively up-regulated β-catenin” in each case. In test [5] (parental HCT116 cells expressing FRP1, subcutaneous in nude mice), the tumor growth result is “no effect”. For the same molecule, the tumor forming ability result in test [5] (β-catenin wild type allele containing HCT116 cells expressing FRP1, subcutaneous in nude mice) was “striking reduction”.
